# In the supplement of paper PMC9112550, “Optimization of the antimicrobial peptide Bac7 by deep mutational scanning” (BMC Biology, 2022):
# Tested on: Escherichia coli TOP10
# Experiment: shrunken log2 fold change of peptide-encoding DNA abundance (4.5 h post-induction vs induction); higher = less antimicrobial activity (less host growth inhibition)
# Settings: time post-induction: 4.5 h; library: site-saturation at positions 5, 18, 19, 20
# 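Note: peptides expressed intracellularly from a pBAD plasmid library in pooled LB shake-flask culture, induced with 0.3% L-arabinose, DNA abundance read by NGS, three biological replicates, DESeq2 with apeglm shrinkage.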
sequence,measurement,value
RRIRARPPRLPRPRPRPEVIPRP,shrunken log2 fold change,0.349
RRIRSRPPRLPRPRPRPHRKPRP,shrunken log2 fold change,-0.077
RRIRSRPPRLPRPRPRPAMTPRP,shrunken log2 fold change,0.459
RRIRLRPPRLPRPRPRPFESPRP,shrunken log2 fold change,-0.168
RRIRYRPPRLPRPRPRPHSPPRP,shrunken log2 fold change,-0.0755
RRIRPRPPRLPRPRPRPNIWPRP,shrunken log2 fold change,-0.0307
RRIRGRPPRLPRPRPRPNRPPRP,shrunken log2 fold change,-0.211
RRIRERPPRLPRPRPRPMITPRP,shrunken log2 fold change,-0.0683
RRIRQRPPRLPRPRPRPWGGPRP,shrunken log2 fold change,0.102
RRIRPRPPRLPRPRPRPRFLPRP,shrunken log2 fold change,0.146
RRIRHRPPRLPRPRPRPHLVPRP,shrunken log2 fold change,-0.18
RRIRWRPPRLPRPRPRPWVWPRP,shrunken log2 fold change,0.0506
RRIRKRPPRLPRPRPRPVQKPRP,shrunken log2 fold change,0.242
RRIRYRPPRLPRPRPRPDKTPRP,shrunken log2 fold change,0.0325
RRIRPRPPRLPRPRPRPDAFPRP,shrunken log2 fold change,0.342
RRIRLRPPRLPRPRPRPLSLPRP,shrunken log2 fold change,-0.145
RRIRQRPPRLPRPRPRPRKIPRP,shrunken log2 fold change,-0.064
RRIRTRPPRLPRPRPRPNVRPRP,shrunken log2 fold change,0.075
RRIRRRPPRLPRPRPRPVILPRP,shrunken log2 fold change,-0.259
RRIRFRPPRLPRPRPRPWCHPRP,shrunken log2 fold change,0.524
RRIRGRPPRLPRPRPRPWNAPRP,shrunken log2 fold change,0.109
RRIRDRPPRLPRPRPRPDNIPRP,shrunken log2 fold change,-0.112
RRIRSRPPRLPRPRPRPTNPPRP,shrunken log2 fold change,-0.0555
RRIRRRPPRLPRPRPRPRMPPRP,shrunken log2 fold change,0.381
RRIRFRPPRLPRPRPRPLFWPRP,shrunken log2 fold change,0.201
RRIRTRPPRLPRPRPRPQMPPRP,shrunken log2 fold change,0.588
RRIRIRPPRLPRPRPRPNHCPRP,shrunken log2 fold change,-0.937
RRIRDRPPRLPRPRPRPACVPRP,shrunken log2 fold change,0.337
RRIRPRPPRLPRPRPRPKISPRP,shrunken log2 fold change,-0.0927
RRIRDRPPRLPRPRPRPAYWPRP,shrunken log2 fold change,-0.0729
RRIRRRPPRLPRPRPRPKWSPRP,shrunken log2 fold change,0.457
RRIRHRPPRLPRPRPRPSKGPRP,shrunken log2 fold change,-0.149
RRIRHRPPRLPRPRPRPQDIPRP,shrunken log2 fold change,-0.343
RRIRSRPPRLPRPRPRPIMVPRP,shrunken log2 fold change,-0.644
RRIRKRPPRLPRPRPRPEATPRP,shrunken log2 fold change,3.17
RRIRDRPPRLPRPRPRPYACPRP,shrunken log2 fold change,0.0334
RRIRQRPPRLPRPRPRPSIAPRP,shrunken log2 fold change,-0.00998
RRIRPRPPRLPRPRPRPKTAPRP,shrunken log2 fold change,-0.109
RRIRHRPPRLPRPRPRPFICPRP,shrunken log2 fold change,0.00486
RRIRFRPPRLPRPRPRPMWPPRP,shrunken log2 fold change,-0.0873
RRIRRRPPRLPRPRPRPWWPPRP,shrunken log2 fold change,0.0939
RRIRIRPPRLPRPRPRPLNIPRP,shrunken log2 fold change,-0.925
RRIRPRPPRLPRPRPRPNVLPRP,shrunken log2 fold change,-0.312
RRIRLRPPRLPRPRPRPKGMPRP,shrunken log2 fold change,-0.0948
RRIRHRPPRLPRPRPRPYKIPRP,shrunken log2 fold change,-0.373
RRIRGRPPRLPRPRPRPFSDPRP,shrunken log2 fold change,0.165
RRIRRRPPRLPRPRPRPGYGPRP,shrunken log2 fold change,0.238
RRIRGRPPRLPRPRPRPDFWPRP,shrunken log2 fold change,0.593
RRIRRRPPRLPRPRPRPFYKPRP,shrunken log2 fold change,-0.173
RRIRKRPPRLPRPRPRPFYKPRP,shrunken log2 fold change,-0.456
RRIRHRPPRLPRPRPRPCPCPRP,shrunken log2 fold change,-0.114
RRIRPRPPRLPRPRPRPSPPPRP,shrunken log2 fold change,0.0408
RRIRNRPPRLPRPRPRPHENPRP,shrunken log2 fold change,-0.164
RRIRSRPPRLPRPRPRPKMCPRP,shrunken log2 fold change,-0.015
RRIRDRPPRLPRPRPRPYRVPRP,shrunken log2 fold change,-0.0135
RRIRTRPPRLPRPRPRPVGRPRP,shrunken log2 fold change,0.129
RRIRMRPPRLPRPRPRPVQCPRP,shrunken log2 fold change,-0.0134
RRIRDRPPRLPRPRPRPLAEPRP,shrunken log2 fold change,1.17
RRIRTRPPRLPRPRPRPGACPRP,shrunken log2 fold change,-0.234
RRIRCRPPRLPRPRPRPTISPRP,shrunken log2 fold change,-0.381
RRIRLRPPRLPRPRPRPNLAPRP,shrunken log2 fold change,-0.0506
RRIRSRPPRLPRPRPRPDGHPRP,shrunken log2 fold change,-0.0734
RRIRVRPPRLPRPRPRPLHIPRP,shrunken log2 fold change,-0.528
RRIRIRPPRLPRPRPRPQDFPRP,shrunken log2 fold change,-0.1
RRIRERPPRLPRPRPRPFNCPRP,shrunken log2 fold change,0.0173
RRIRKRPPRLPRPRPRPNFTPRP,shrunken log2 fold change,0.156
RRIRMRPPRLPRPRPRPYNRPRP,shrunken log2 fold change,-0.336
RRIRQRPPRLPRPRPRPNHFPRP,shrunken log2 fold change,0.189
RRIRRRPPRLPRPRPRPGMEPRP,shrunken log2 fold change,0.0306
RRIRRRPPRLPRPRPRPFVGPRP,shrunken log2 fold change,-0.229
RRIRMRPPRLPRPRPRPMNFPRP,shrunken log2 fold change,0.032
RRIRKRPPRLPRPRPRPFMSPRP,shrunken log2 fold change,0.0192
RRIRIRPPRLPRPRPRPIHVPRP,shrunken log2 fold change,0.0502
RRIRPRPPRLPRPRPRPIHGPRP,shrunken log2 fold change,-0.00809
RRIRQRPPRLPRPRPRPTRKPRP,shrunken log2 fold change,-0.0205
RRIRSRPPRLPRPRPRPIMYPRP,shrunken log2 fold change,-0.42
RRIRIRPPRLPRPRPRPKDLPRP,shrunken log2 fold change,0.000215
RRIRNRPPRLPRPRPRPLKQPRP,shrunken log2 fold change,0.114
RRIRMRPPRLPRPRPRPTMHPRP,shrunken log2 fold change,0.488
RRIRERPPRLPRPRPRPNVNPRP,shrunken log2 fold change,-0.34
RRIRYRPPRLPRPRPRPFQLPRP,shrunken log2 fold change,-0.0518
RRIRSRPPRLPRPRPRPCMLPRP,shrunken log2 fold change,-0.472
RRIRVRPPRLPRPRPRPQFGPRP,shrunken log2 fold change,-0.018
RRIRTRPPRLPRPRPRPEQVPRP,shrunken log2 fold change,-0.00471
RRIRCRPPRLPRPRPRPSYIPRP,shrunken log2 fold change,-0.675
RRIRIRPPRLPRPRPRPVEMPRP,shrunken log2 fold change,-0.299
RRIRRRPPRLPRPRPRPTMWPRP,shrunken log2 fold change,0.364
RRIRMRPPRLPRPRPRPAEAPRP,shrunken log2 fold change,0.917
RRIRARPPRLPRPRPRPHWTPRP,shrunken log2 fold change,-0.0108
RRIRNRPPRLPRPRPRPEFSPRP,shrunken log2 fold change,0.0268
RRIRQRPPRLPRPRPRPDEVPRP,shrunken log2 fold change,0.0037
RRIRQRPPRLPRPRPRPNCCPRP,shrunken log2 fold change,0.0381
RRIRSRPPRLPRPRPRPHPEPRP,shrunken log2 fold change,0.316
RRIRKRPPRLPRPRPRPIHEPRP,shrunken log2 fold change,-0.0401
RRIRFRPPRLPRPRPRPWHHPRP,shrunken log2 fold change,-0.325
RRIRDRPPRLPRPRPRPAEAPRP,shrunken log2 fold change,0.314
RRIRLRPPRLPRPRPRPNFDPRP,shrunken log2 fold change,0.0771
RRIRRRPPRLPRPRPRPDTHPRP,shrunken log2 fold change,-0.254
RRIRGRPPRLPRPRPRPWKAPRP,shrunken log2 fold change,0.0375
RRIRRRPPRLPRPRPRPRHHPRP,shrunken log2 fold change,0.0826
RRIRSRPPRLPRPRPRPTVCPRP,shrunken log2 fold change,0.0523
RRIRFRPPRLPRPRPRPVNEPRP,shrunken log2 fold change,-0.288
RRIRCRPPRLPRPRPRPLFMPRP,shrunken log2 fold change,-0.368
RRIRPRPPRLPRPRPRPADIPRP,shrunken log2 fold change,0.142
RRIRSRPPRLPRPRPRPPDKPRP,shrunken log2 fold change,0.0307
RRIRTRPPRLPRPRPRPLRGPRP,shrunken log2 fold change,0.897
RRIRLRPPRLPRPRPRPNLFPRP,shrunken log2 fold change,-0.0622
RRIRMRPPRLPRPRPRPCAEPRP,shrunken log2 fold change,2.31
RRIRCRPPRLPRPRPRPHYLPRP,shrunken log2 fold change,-0.574
RRIRHRPPRLPRPRPRPILMPRP,shrunken log2 fold change,-0.00291
RRIRDRPPRLPRPRPRPMTLPRP,shrunken log2 fold change,0.0841
RRIRHRPPRLPRPRPRPQFVPRP,shrunken log2 fold change,-0.163
RRIRKRPPRLPRPRPRPYCVPRP,shrunken log2 fold change,-0.382
RRIRSRPPRLPRPRPRPQHDPRP,shrunken log2 fold change,-0.227
RRIRNRPPRLPRPRPRPCIWPRP,shrunken log2 fold change,0.131
RRIRARPPRLPRPRPRPTHMPRP,shrunken log2 fold change,0.156
RRIRFRPPRLPRPRPRPHIHPRP,shrunken log2 fold change,-1.17
RRIRGRPPRLPRPRPRPIAPPRP,shrunken log2 fold change,1.29
RRIRFRPPRLPRPRPRPLDFPRP,shrunken log2 fold change,-0.325
RRIRHRPPRLPRPRPRPKFSPRP,shrunken log2 fold change,-0.304
RRIRARPPRLPRPRPRPMFNPRP,shrunken log2 fold change,-0.132
RRIRRRPPRLPRPRPRPKDKPRP,shrunken log2 fold change,0.239
RRIRDRPPRLPRPRPRPRTDPRP,shrunken log2 fold change,0.0936
RRIRIRPPRLPRPRPRPAITPRP,shrunken log2 fold change,-0.706
RRIRGRPPRLPRPRPRPDIGPRP,shrunken log2 fold change,0.663
